Source: US20190324040A1

Legend:
[1] = target: Zika virus (ZIKV), whole virus particles (Zika virus); assay: virus capture ELISA
[2] = target: Zika virus (ZIKV), whole virus particles (Zika virus); assay: cell-based or functional assay
[3] = target: Zika virus (ZIKV), whole virus particles (Zika virus); assay: P1F12-ZIKV binding inhibition ELISA (4G2-captured ZIKV); competitor: 1/10 plasma of donor 138 (DENV+)
[4] = target: Zika virus (ZIKV), whole virus particles (Zika virus); assay: P1F12-ZIKV binding inhibition ELISA (4G2-captured ZIKV); competitor: 1/10 plasma of donor 152 (DENV+)
[5] = target: Zika virus (ZIKV), whole virus particles (Zika virus); assay: P1F12-ZIKV binding inhibition ELISA (4G2-captured ZIKV); competitor: 1/10 plasma of donor 168 (DENV+)
[6] = target: Zika virus (ZIKV), whole virus particles (Zika virus); assay: P1F12-ZIKV binding inhibition ELISA (4G2-captured ZIKV); competitor: 1/10 plasma of donor 177 (DENV+)
[7] = target: Zika virus (ZIKV), whole virus particles (Zika virus); assay: P1F12-ZIKV binding inhibition ELISA (4G2-captured ZIKV); competitor: 1/10 plasma of donor 184 (DENV+)
[8] = target: Zika virus (ZIKV), whole virus particles (Zika virus); assay: P1F12-ZIKV binding inhibition ELISA (4G2-captured ZIKV); competitor: 1/10 plasma of donor 507 (DENV+)
[9] = target: Zika virus (ZIKV), whole virus particles (Zika virus); assay: P1F12-ZIKV binding inhibition ELISA (4G2-captured ZIKV); competitor: 1/10 plasma of donor 533 (ZIKV+)
[10] = target: Zika virus (ZIKV), whole virus particles (Zika virus); assay: P1F12-ZIKV binding inhibition ELISA (4G2-captured ZIKV); competitor: 1/10 plasma of donor 801 (ZIKV+)
[11] = target: Zika virus (ZIKV), whole virus particles (Zika virus); assay: P1F12-ZIKV binding inhibition ELISA (4G2-captured ZIKV); competitor: 1/10 plasma of donor 802 (ZIKV+)
[12] = target: Zika virus (ZIKV), whole virus particles (Zika virus); assay: P1F12-ZIKV binding inhibition ELISA (4G2-captured ZIKV); competitor: 1/10 plasma of donor 1208 (DENV+)
[13] = target: Zika virus (ZIKV), whole virus particles (Zika virus); assay: P1F12-ZIKV binding inhibition ELISA (4G2-captured ZIKV); competitor: 1/10 plasma of donor 1235 (DENV+)
[14] = target: Zika virus (ZIKV), whole virus particles (Zika virus); assay: P1F12-ZIKV binding inhibition ELISA (4G2-captured ZIKV); competitor: 1/10 plasma of donor 1248 (DENV+)
[15] = target: Zika virus (ZIKV), whole virus particles (Zika virus); assay: P1F12-ZIKV binding inhibition ELISA (4G2-captured ZIKV); competitor: 1/10 plasma of donor 1252 (DENV+)
[16] = target: Zika virus (ZIKV), whole virus particles (Zika virus); assay: P1F12-ZIKV binding inhibition ELISA (4G2-captured ZIKV); competitor: 1/10 plasma of donor 1280 (DENV+)
[17] = target: Zika virus (ZIKV), whole virus particles (Zika virus); assay: P1F12-ZIKV binding inhibition ELISA (4G2-captured ZIKV); competitor: 1/10 plasma of donor 1294 (DENV+)
[18] = target: Zika virus (ZIKV), whole virus particles (Zika virus); assay: P1F12-ZIKV binding inhibition ELISA (4G2-captured ZIKV); competitor: 1/10 plasma of donor 1302 (ZIKV+)
[19] = target: Zika virus (ZIKV), whole virus particles (Zika virus); assay: P1F12-ZIKV binding inhibition ELISA (4G2-captured ZIKV); competitor: 1/10 plasma of donor 3002 (ZIKV+)
[20] = target: Zika virus (ZIKV), whole virus particles (Zika virus); assay: P1F12-ZIKV binding inhibition ELISA (4G2-captured ZIKV); competitor: 1/10 plasma of donor 3004 (ZIKV+)
[21] = target: Zika virus (ZIKV), whole virus particles (Zika virus); assay: P1F12-ZIKV binding inhibition ELISA (4G2-captured ZIKV); competitor: 1/10 plasma of donor 3012 (ZIKV+)
[22] = target: Zika virus (ZIKV), whole virus particles (Zika virus); assay: P1F12-ZIKV binding inhibition ELISA (4G2-captured ZIKV); competitor: 1/10 plasma of donor 3013 (ZIKV+)
[23] = target: Zika virus (ZIKV), whole virus particles (Zika virus); assay: P1F12-ZIKV binding inhibition ELISA (4G2-captured ZIKV); competitor: 1/10 plasma of donor 3018 (ZIKV+)
[24] = target: Zika virus (ZIKV), whole virus particles (Zika virus); assay: P1F12-ZIKV binding inhibition ELISA (4G2-captured ZIKV); competitor: 1/10 plasma of donor hu004 (ZIKV+)
[25] = target: Zika virus (ZIKV), whole virus particles (Zika virus); assay: P1F12-ZIKV binding inhibition ELISA (4G2-captured ZIKV); competitor: 1/10 plasma of donor hu002 (U.S. naive)
[26] = target: Zika virus (ZIKV), whole virus particles (Zika virus); assay: P1F12-ZIKV binding inhibition ELISA (4G2-captured ZIKV); competitor: 1/10 plasma of donor FA2002 (YF vaccine)
[27] = target: Zika virus (ZIKV), whole virus particles (Zika virus); assay: P1F12-ZIKV binding inhibition ELISA (4G2-captured ZIKV); competitor: 1/10 plasma of donor FA2004 (YF vaccine)
[28] = target: Zika virus (ZIKV), whole virus particles (Zika virus); assay: P1F12-ZIKV binding inhibition ELISA (4G2-captured ZIKV); competitor: 1/10 plasma of donor FA2005 (YF vaccine)
[29] = target: Zika virus (ZIKV), whole virus particles (Zika virus); assay: P1F12-ZIKV binding inhibition ELISA (4G2-captured ZIKV); competitor: 1/10 plasma of donor FA7006 (YF vaccine)
[30] = target: Zika virus (ZIKV), whole virus particles (Zika virus); assay: P1F12-ZIKV binding inhibition ELISA (4G2-captured ZIKV); competitor: 1/10 plasma of donor 12 (naive)
[31] = target: Zika virus (ZIKV), whole virus particles (Zika virus); assay: P1F12-ZIKV binding inhibition ELISA (4G2-captured ZIKV); competitor: 1/10 plasma of donor Class 1 (U.S. naive)
[32] = target: Zika virus (ZIKV), whole virus particles (Zika virus); assay: P1F12-ZIKV binding inhibition ELISA (4G2-captured ZIKV); competitor: 1/10 plasma of donor Class 2 (U.S. naive)
[33] = target: Zika virus (ZIKV), whole virus particles (Zika virus); assay: P1F12-ZIKV binding inhibition ELISA (4G2-captured ZIKV); competitor: 1/10 plasma of donor Class 3 (U.S. naive)
[34] = target: Zika virus (ZIKV), whole virus particles (Zika virus); assay: P1F12-ZIKV binding inhibition ELISA (4G2-captured ZIKV); competitor: 1/10 plasma of donor Class 4 (U.S. naive)
[35] = target: Zika virus (ZIKV), whole virus particles (Zika virus); assay: P1F12-ZIKV binding inhibition ELISA (4G2-captured ZIKV); competitor: 1/10 plasma of donor Class 5 (U.S. naive)
[36] = target: Zika virus (ZIKV), whole virus particles (Zika virus); assay: P1F12-ZIKV binding inhibition ELISA (4G2-captured ZIKV); competitor: 1/10 plasma of donor Class 6 (U.S. naive)
[37] = target: Zika virus (ZIKV), whole virus particles (Zika virus); assay: P1F12-ZIKV binding inhibition ELISA (4G2-captured ZIKV); competitor: 1/10 plasma of donor Class 7 (U.S. naive)
[38] = target: Zika virus (ZIKV), whole virus particles (Zika virus); assay: P1F12-ZIKV binding inhibition ELISA (4G2-captured ZIKV); competitor: 1/10 plasma of donor Class 8 (U.S. naive)
[39] = target: Zika virus (ZIKV), whole virus particles (Zika virus); assay: P1F12-ZIKV binding inhibition ELISA (4G2-captured ZIKV); competitor: 1/10 plasma of donor Class 9 (U.S. naive)
[40] = target: Zika virus (ZIKV), whole virus particles (Zika virus); assay: P1F12-ZIKV binding inhibition ELISA (4G2-captured ZIKV); competitor: 1/10 plasma of donor 515 (naive)
[41] = target: Zika virus (ZIKV), whole virus particles (Zika virus); assay: P1F12-ZIKV binding inhibition ELISA (4G2-captured ZIKV); competitor: 1/10 plasma of donor Class 10 (U.S. naive)
[42] = target: Zika virus (ZIKV), whole virus particles (Zika virus); assay: P1F12-ZIKV binding inhibition ELISA (4G2-captured ZIKV); competitor: 1/10 plasma of donor Class 11 (U.S. naive)
[43] = target: Zika virus (ZIKV), whole virus particles (Zika virus); assay: P1F12-ZIKV binding inhibition ELISA (4G2-captured ZIKV); competitor: 1/10 plasma of donor Class 12 (U.S. naive)
[44] = target: Zika virus (ZIKV), whole virus particles (Zika virus); assay: P1F12-ZIKV binding inhibition ELISA (4G2-captured ZIKV); competitor: 1/10 plasma of donor Class 13 (U.S. naive)
[45] = target: Zika virus (ZIKV), whole virus particles (Zika virus); assay: P1F12-ZIKV binding inhibition ELISA (4G2-captured ZIKV); competitor: 1/10 plasma of donor Class 14 (U.S. naive)
[46] = target: Zika virus (ZIKV), whole virus particles (Zika virus); assay: P1F12-ZIKV binding inhibition ELISA (4G2-captured ZIKV); competitor: 1/10 plasma of donor 1255 (naive)
[47] = target: Zika virus (ZIKV), whole virus particles (Zika virus); assay: P1F12-ZIKV binding inhibition ELISA (4G2-captured ZIKV); competitor: 1/10 plasma of donor 1261 (naive)
[48] = target: Zika virus (ZIKV), whole virus particles (Zika virus); assay: P1F12-ZIKV binding inhibition ELISA (4G2-captured ZIKV); competitor: 1/10 plasma of donor 1273 (naive)

B1: CC17 mAb (P1F12) (antibody, V domains shown)
VH: QVQLVQSGGGLVQPGGSLRLSCAASGFTFSSYWMSWVRQAPGKGLEWVANIKQDGSEKYYVDSVKGRFTISRDNAKNSLYLQMNSLRAEDTAVYYCAGNGWDDSSGYYYRNYYYGMDVWGQGTTVTVSS
VL: DIQMTQSPSSFSASTGDRVTITCRASQGISSYLAWYQQKPGKAPKLLIYAASTLQSGVPSRFSGSGSGTDFTLTISCLQSEDFATYYCQQYYSYPRTFGGGTKVDIK
ZIKV binding Abs 450 nm [1]: 0.17 Abs 450 nm | % of Zika virus Neutralized (Vero infectivity assay), antibody at 1 µg/ml [2]: 82.3% | Neut50 [2]: 2 µg/mL | PRNT50 (plaque reduction neutralization test) [2]: 2 µg/mL | P1F12-ZIKV inhibition assay (Abs450) [3]: 0.34 Abs450 | P1F12-ZIKV inhibition assay (Abs450) [4]: 0.15 Abs450 | P1F12-ZIKV inhibition assay (Abs450) [5]: 0.32 Abs450 | P1F12-ZIKV inhibition assay (Abs450) [6]: 0.18 Abs450 | P1F12-ZIKV inhibition assay (Abs450) [7]: 0.26 Abs450 | P1F12-ZIKV inhibition assay (Abs450) [8]: 0.28 Abs450 | P1F12-ZIKV inhibition assay (Abs450) [9]: 0.03 Abs450 | P1F12-ZIKV inhibition assay (Abs450) [10]: 0.04 Abs450 | P1F12-ZIKV inhibition assay (Abs450) [11]: 0.05 Abs450 | P1F12-ZIKV inhibition assay (Abs450) [12]: 0.25 Abs450 | P1F12-ZIKV inhibition assay (Abs450) [13]: 0.18 Abs450 | P1F12-ZIKV inhibition assay (Abs450) [14]: 0.36 Abs450 | P1F12-ZIKV inhibition assay (Abs450) [15]: 0.19 Abs450 | P1F12-ZIKV inhibition assay (Abs450) [16]: 0.29 Abs450 | P1F12-ZIKV inhibition assay (Abs450) [17]: 0.29 Abs450 | P1F12-ZIKV inhibition assay (Abs450) [18]: 0.62 Abs450 | P1F12-ZIKV inhibition assay (Abs450) [19]: 0.04 Abs450 | P1F12-ZIKV inhibition assay (Abs450) [20]: 0.03 Abs450 | P1F12-ZIKV inhibition assay (Abs450) [21]: 0.05 Abs450 | P1F12-ZIKV inhibition assay (Abs450) [22]: 0.03 Abs450 | P1F12-ZIKV inhibition assay (Abs450) [23]: 0.04 Abs450 | P1F12-ZIKV inhibition assay (Abs450) [24]: 0.04 Abs450 | P1F12-ZIKV inhibition assay (Abs450) [25]: 0.57 Abs450 | P1F12-ZIKV inhibition assay (Abs450) [26]: 0.319 Abs450 | P1F12-ZIKV inhibition assay (Abs450) [27]: 0.393 Abs450 | P1F12-ZIKV inhibition assay (Abs450) [28]: 0.332 Abs450 | P1F12-ZIKV inhibition assay (Abs450) [29]: 0.396 Abs450 | P1F12-ZIKV inhibition assay (Abs450) [30]: 0.22 Abs450 | P1F12-ZIKV inhibition assay (Abs450) [31]: 0.323 Abs450 | P1F12-ZIKV inhibition assay (Abs450) [32]: 0.312 Abs450 | P1F12-ZIKV inhibition assay (Abs450) [33]: 0.406 Abs450 | P1F12-ZIKV inhibition assay (Abs450) [34]: 0.392 Abs450 | P1F12-ZIKV inhibition assay (Abs450) [35]: 0.389 Abs450 | P1F12-ZIKV inhibition assay (Abs450) [36]: 0.292 Abs450 | P1F12-ZIKV inhibition assay (Abs450) [37]: 0.246 Abs450 | P1F12-ZIKV inhibition assay (Abs450) [38]: 0.303 Abs450 | P1F12-ZIKV inhibition assay (Abs450) [39]: 0.316 Abs450 | P1F12-ZIKV inhibition assay (Abs450) [40]: 0.293 Abs450 | P1F12-ZIKV inhibition assay (Abs450) [41]: 0.315 Abs450 | P1F12-ZIKV inhibition assay (Abs450) [42]: 0.395 Abs450 | P1F12-ZIKV inhibition assay (Abs450) [43]: 0.344 Abs450 | P1F12-ZIKV inhibition assay (Abs450) [44]: 0.276 Abs450 | P1F12-ZIKV inhibition assay (Abs450) [45]: 0.323 Abs450 | P1F12-ZIKV inhibition assay (Abs450) [46]: 0.323 Abs450 | P1F12-ZIKV inhibition assay (Abs450) [47]: 0.405 Abs450 | P1F12-ZIKV inhibition assay (Abs450) [48]: 0.395 Abs450
